Measurements taken from article PMC9687980.

Target: human Fc fusion angiotensin-converting enzyme 2 (hACE2-Fc) (human) (UniProt Q9BYF1)
Assay: BLI

Sequence of human Fc fusion angiotensin-converting enzyme 2 (hACE2-Fc) (human) (Q9BYF1 18-740): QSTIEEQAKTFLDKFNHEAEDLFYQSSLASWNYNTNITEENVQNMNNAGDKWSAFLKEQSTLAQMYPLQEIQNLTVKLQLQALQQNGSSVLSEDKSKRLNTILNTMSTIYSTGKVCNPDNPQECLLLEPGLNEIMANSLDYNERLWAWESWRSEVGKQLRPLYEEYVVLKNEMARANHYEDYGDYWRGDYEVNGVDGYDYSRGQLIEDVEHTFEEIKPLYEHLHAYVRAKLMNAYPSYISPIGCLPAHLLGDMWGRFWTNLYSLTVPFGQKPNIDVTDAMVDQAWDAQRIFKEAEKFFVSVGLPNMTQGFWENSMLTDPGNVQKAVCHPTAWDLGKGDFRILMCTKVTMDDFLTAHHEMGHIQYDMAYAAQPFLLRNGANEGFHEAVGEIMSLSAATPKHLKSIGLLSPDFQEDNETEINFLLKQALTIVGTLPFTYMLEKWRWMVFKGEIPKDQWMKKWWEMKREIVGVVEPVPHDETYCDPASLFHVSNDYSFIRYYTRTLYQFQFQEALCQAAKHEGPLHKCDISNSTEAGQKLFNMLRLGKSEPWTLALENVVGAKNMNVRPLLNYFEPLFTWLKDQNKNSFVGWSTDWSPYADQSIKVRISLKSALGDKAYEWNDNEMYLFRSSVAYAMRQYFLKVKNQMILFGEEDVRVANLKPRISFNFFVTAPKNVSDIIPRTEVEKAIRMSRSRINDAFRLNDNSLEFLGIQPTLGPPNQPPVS

Substance	Kd [nM]	koff [s⁻¹]	kon [M⁻¹ s⁻¹]
MBP-fused spike receptor binding domain of SARS-CoV-2 Omicron BA.1 (MBP-RBDomi) (domain or fragment)	10.1	0.00174	172000
spike RBD of SARS-CoV-2 Omicron expressed in a mammalian system (domain or fragment)	7.16	0.00161	226000
